Target: bispecific binding molecule comprising a first specific binding molecule (comprising SEQ ID NO:265 a)
Sequence (chain, as listed by the source, chain 1 of 3): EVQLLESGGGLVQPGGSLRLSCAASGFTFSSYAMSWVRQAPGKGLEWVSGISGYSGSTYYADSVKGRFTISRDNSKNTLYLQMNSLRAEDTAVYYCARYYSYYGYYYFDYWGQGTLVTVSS
Sequence (chain, as listed by the source, chain 2 of 3): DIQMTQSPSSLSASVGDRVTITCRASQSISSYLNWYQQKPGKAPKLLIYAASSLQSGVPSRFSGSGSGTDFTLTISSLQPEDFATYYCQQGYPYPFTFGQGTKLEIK
Sequence (chain, as listed by the source, chain 3 of 3): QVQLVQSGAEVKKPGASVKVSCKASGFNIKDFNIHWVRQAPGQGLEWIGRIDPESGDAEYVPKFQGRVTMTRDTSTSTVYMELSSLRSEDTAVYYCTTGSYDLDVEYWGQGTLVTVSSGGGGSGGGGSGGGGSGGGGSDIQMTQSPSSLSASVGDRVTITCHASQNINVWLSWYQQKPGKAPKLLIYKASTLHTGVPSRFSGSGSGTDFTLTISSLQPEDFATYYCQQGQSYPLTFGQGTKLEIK

B1: tag moiety … (SEQ ID NO:2) (peptide)
peptide: FIGITELKK
modifications: not checked
In the case of B1, the Kd is reported as 9.4 pM.

Source: EP4663199A1
